Target: MBP-RAB23T22N (Chlamydomonas reinhardtii)
Test: SEC

## RAB18S22N (bacterially expressed, 6×His-tag removed) (natural protein)
  stoichiometry N: 1
